These results are taken from paper PMC2974046.

Holding throughout (experiment): purified protein
The test system of data set [1] is NC(=O)/C=C/C(=O)NC[C@H](N)C(=O)O. Format: biochemical, Pantoea agglomerans. The note with it: adenylation (A) domain, ATP, Mg2+, pH 7.5, room temperature.
Data set [2] has the same test system. The note with it: 5 mM L-valine, 10 mM ATP, 12 mM MgCl2, HEPES pH 8, room temperature.
Data set [3] deals with NC(=O)[C@@H]1O[C@H]1C(=O)NC[C@H](N)C(=O)O. Particulars: 5 mM L-valine, 10 mM ATP, 12 mM MgCl2, HEPES pH 8, room temperature.

DdaD (Pantoea agglomerans): in data set [1], the Michaelis constant (Km) was found to be 420 ± 80 µM and the kcat came out at 1.07 ± 0.083 s⁻¹.

Regarding DdaF (Pantoea agglomerans), in data set [2], the Km stood at 72 ± 34 µM, the catalytic constant (kcat) worked out at 0.35 ± 0.05 s⁻¹ and the kcat/Km was 4830 M⁻¹ s⁻¹. Moreover, in data set [3], the Km came to 53 ± 7 µM, the turnover number (kcat) came to 3.02 ± 0.117 s⁻¹ and the kcat/Km stood at 56700 M⁻¹ s⁻¹.
